Where “and” joins values, the source holds several entries; their conditions need not be identical. Identical values can stand only once.
Key:
Abz-Ala-Leu-Pro-Phe-pNA = assay: Peptide-based isomerization assay, PPIase activity, Leu substrate; assay type: biochemical
Method: (§1) To determine the activity of PPIases, peptides with either Leu or Glu preceding the Pro were used. Buffer and the desired concentration of PPIase were mixed in a QS quartz cuvette (Hellma Analytics) and incubated for 2 min under constant stirring. Peptide was added and the fluorescence increase was monitored.

SthK P300A = assay: Stopped-flow Tl+ flux assay, SthK P300A in proteo-liposomes; assay type: biochemical, Spirochaeta thermophila; conditions: SthK P300A + SlyD; for averaged rate: mean of normalized rates; for normalized rate: single replicates
From the text: (§2) In all cyclic nucleotide-gated channels the connection between the C-linker and the CNBD is formed by a helix-loop-helix motif called the siphon. […] This proline had not been previously implicated in prolyl isomerization in HCN channels or SthK. Due to steric restrictions and the lack of an amide-proton, prolines are only rarely found at the C-termini of α-helices[20],[21]. To test whether this unusual proline (Pro300, Fig. 1a, b) plays a role in channel activation, we employed a fluorescence-based stopped-flow assay to measure activation kinetics of a SthK mutant where the proline was substituted by an alanine.
(§3) All stopped-flow experiments were performed at 25 °C using a SX.20 sequential mixing fluorescence spectrophotometer (Applied Photophysics, Leatherhead, UK) controlled using ProDataSX as described before. In order to prepare liposomes for the Tl^+ flux assays 15 mg of DOPC:POPG:Cardiolipin (5:3:2, w/w/w) in chloroform were dried to a thin film in glass tubes under constant N2 flow and further dried under vacuum overnight. […] The sample was incubated at 21 °C under constant agitation for 3 h, the supernatant was transferred to a new glass tube and stored at 13 °C overnight. […] The liposome solution was diluted 5-times in sample buffer right before the experiments to ensure a good signal-to-noise ratio.
(§4) For the time course of activation in the presence of PPIases 2 µM of enzyme were added to the liposome solution and incubated for at least 10 min before the experiment yielding 1 µM of enzyme in the aging loop (after the first mixing event).
(§5) During one experiment, at least seven technical repeats were performed for each data point, every repeat was visually inspected for its quality, mixing artifacts were sorted out and the remaining repeats (typically 6–7 technical repeats) were analyzed separately in Matlab using a stretched exponential function (Eq. (2)) and the rate of Tl^+ influx into liposomes was calculated at 2 ms according to Eq. (3). 5000 data points were recorded over 1 s, however, to obtain the initial rate of Tl^+ influx only the first 100 ms were analyzed. The use of a stretched exponential function is necessary since the sizes of the liposomes vary and different amounts of channel proteins can be incorporated in different liposomes.2 Ft=F∞+F0−F∞⋅e^−t/τ^β 3 kt=β/τ⋅0.002s/τ^β−1 with Ft, F∞, F0 being the fluorescence at time t, the final fluorescence and the initial fluorescence, respectively. t is the time (in s), τ the time constant (in s) and β the stretched exponential factor. kt is the calculated rate (in s^−1) of Tl^+ influx at 2 ms.
(§6) The calculated rates kt were then averaged and the standard deviation (S.D.) was determined. Each experiment was independently repeated at least three times, the obtained rate constants were normalized, averaged and the S.D. was determined.
(§7) All further analysis was performed in GraFit. For the time course of channel activation, the rates were plotted as a function of the delay time in the first mixing step and fitted according to a double exponential.

WT SthK = assay: Stopped-flow Tl+ flux assay, WT SthK in proteo-liposomes; assay type: biochemical, Spirochaeta thermophila; parameters: key to averaged rate: normalized Tl+ influx rate at 2 ms (unitless, relative)
From the text: as §2, §3, §4, §5, §6, §7

Abz-Ala-Glu-Pro-Phe-pNA = assay: Peptide-based isomerization assay, PPIase activity, Glu substrate; assay type: biochemical
Method: as §1

[1] = 1 µM PPIase, 100 µM cAMP, delay time 0.012 s
[2] = 1 µM PPIase, 100 µM cAMP, delay time 0.050 s
[3] = 1 µM PPIase, 100 µM cAMP, delay time 0.100 s
[4] = 1 µM PPIase, 100 µM cAMP, delay time 0.500 s
[5] = 1 µM PPIase, 100 µM cAMP, delay time 1.000 s
[6] = 1 µM PPIase, 100 µM cAMP, delay time 2.500 s
[7] = 1 µM PPIase, 100 µM cAMP, delay time 5.000 s
[8] = 1 µM PPIase, 100 µM cAMP, delay time 10.000 s
[9] = [PPIase] 10 pM, 12 ms with 100 µM cAMP
[10] = [PPIase] 100 pM, 12 ms with 100 µM cAMP
[11] = [PPIase] 1e-8 M, 12 ms with 100 µM cAMP
[12] = [PPIase] 1e-7 M, 12 ms with 100 µM cAMP
[13] = [PPIase] 1e-6 M, 12 ms with 100 µM cAMP
[14] = [PPIase] 1e-5 M, 12 ms with 100 µM cAMP

B1: SlyD: bacterial FKBP-type isomerase (UniProt P0A9K9, residues 1–165) (protein, UniProt P0A9K9 1-165, looked up, fragment)
chain: MKVAKDLVVSLAYQVRTEDGVLVDESPVSAPLDYLHGHGSLISGLETALEGHEVGDKFDVAVGANDAYGQYDENLVQRVPKDVFMGVDELQVGMRFLAETDQGPVPVEITAVEDDHVVVDGNHMLAGQNLKFNVEVVAIREATEEELAHGHVHGAHDHHHDHDHD
Q: How did the apparent rate (Abz-Ala-Leu-Pro-Phe-pNA; KCl, LPF substrate, 2 nM enzyme) turn out when B1 was run?
A: 0.041 s⁻¹ and 0.044 s⁻¹ and 0.045 s⁻¹

Q: And the apparent rate (Abz-Ala-Leu-Pro-Phe-pNA; KCl, LPF substrate, 5 nM enzyme)?
A: 0.051 s⁻¹ and 0.061 s⁻¹ and 0.048 s⁻¹

Q: And the apparent rate (Abz-Ala-Leu-Pro-Phe-pNA; KCl, LPF substrate, 10 nM enzyme)?
A: 0.068 s⁻¹ and 0.054 s⁻¹ and 0.069 s⁻¹

Q: What about the apparent rate (Abz-Ala-Leu-Pro-Phe-pNA; KCl, LPF substrate, 15 nM enzyme) of the same molecule?
A: 0.053 s⁻¹ and 0.072 s⁻¹ and 0.063 s⁻¹

Q: And the apparent rate (Abz-Ala-Leu-Pro-Phe-pNA; KNO3, LPF substrate, 2 nM enzyme)?
A: 0.049 s⁻¹ and 0.043 s⁻¹ and 0.048 s⁻¹

Q: What about the apparent rate (Abz-Ala-Leu-Pro-Phe-pNA; KNO3, LPF substrate, 5 nM enzyme) of the same molecule?
A: 0.062 s⁻¹ and 0.056 s⁻¹ and 0.074 s⁻¹

Q: And the apparent rate (Abz-Ala-Leu-Pro-Phe-pNA; KNO3, LPF substrate, 10 nM enzyme)?
A: 0.072 s⁻¹ and 0.045 s⁻¹

Q: What about the apparent rate (Abz-Ala-Leu-Pro-Phe-pNA; KNO3, LPF substrate, 15 nM enzyme) of the same molecule?
A: 0.062 s⁻¹ and 0.069 s⁻¹ and 0.077 s⁻¹

Q: And the averaged rate (SthK P300A; delay time 0.010 s)?
A: 1.007

Q: What about the normalized rate (SthK P300A; delay time 0.010 s) of the same molecule?
A: 1.011 and 0.947

Q: What about the averaged rate (SthK P300A; delay time 0.025 s) of the same molecule?
A: 0.973

Q: And the normalized rate (SthK P300A; delay time 0.025 s)?
A: 0.800

Q: What about the averaged rate (SthK P300A; delay time 0.050 s) of the same molecule?
A: 0.981

Q: And the normalized rate (SthK P300A; delay time 0.050 s)?
A: 0.892 and 1.105

Q: What about the averaged rate (SthK P300A; delay time 0.100 s) of the same molecule?
A: 0.894

Q: What about the normalized rate (SthK P300A; delay time 0.100 s) of the same molecule?
A: 1.000 and 0.795 and 0.887

Q: And the averaged rate (SthK P300A; delay time 0.250 s)?
A: 1.060

Q: And the normalized rate (SthK P300A; delay time 0.250 s)?
A: 1.026 and 1.272 and 0.881

Q: And the averaged rate (SthK P300A; delay time 0.500 s)?
A: 1.153

Q: What about the normalized rate (SthK P300A; delay time 0.500 s) of the same molecule?
A: 1.146 and 1.160

Q: What about the averaged rate (SthK P300A; delay time 1.000 s) of the same molecule?
A: 1.068

Q: What about the normalized rate (SthK P300A; delay time 1.000 s) of the same molecule?
A: 1.172

Q: What about the averaged rate (SthK P300A; delay time 2.500 s) of the same molecule?
A: 1.001

Q: And the normalized rate (SthK P300A; delay time 2.500 s)?
A: 1.067 and 1.000

Q: And the averaged rate (SthK P300A; delay time 5.000 s)?
A: 0.966

Q: What about the normalized rate (SthK P300A; delay time 5.000 s) of the same molecule?
A: 1.000 and 0.922

Q: What about the averaged rate (SthK P300A; delay time 10.000 s) of the same molecule?
A: 0.867

Q: And the normalized rate (SthK P300A; delay time 10.000 s)?
A: 0.930 and 0.866 and 0.804

Q: What about the averaged rate (WT SthK; [1]) of the same molecule?
A: 1.130

Q: And the normalized rate (WT SthK; [1])?
A: 0.993 and 1.357 and 1.239 and 1.025 and 1.202 and 0.960

Q: What about the averaged rate (WT SthK; [2]) of the same molecule?
A: 1.035

Q: And the normalized rate (WT SthK; [2])?
A: 1.008 and 0.974 and 1.215 and 1.144 and 1.115 and 0.926 and 0.860

Q: What about the averaged rate (WT SthK; [3]) of the same molecule?
A: 0.965

Q: And the normalized rate (WT SthK; [3])?
A: 0.986 and 0.930 and 0.972 and 1.038 and 1.181 and 0.964 and 0.683

Q: And the normalized rate (WT SthK; 1 µM PPIase, 100 µM cAMP, delay time 0.250 s)?
A: 0.815 and 0.934 and 1.134 and 1.296 and 1.074 and 0.872

Q: And the averaged rate (WT SthK; [4])?
A: 0.978

Q: What about the normalized rate (WT SthK; [4]) of the same molecule?
A: 0.911 and 0.879 and 0.973 and 1.305 and 0.757 and 1.021 and 1.000

Q: And the averaged rate (WT SthK; [5])?
A: 0.917

Q: What about the normalized rate (WT SthK; [5]) of the same molecule?
A: 0.846 and 1.000 and 0.945 and 0.918 and 0.791 and 0.664

Q: And the averaged rate (WT SthK; [6])?
A: 0.942

Q: What about the normalized rate (WT SthK; [6]) of the same molecule?
A: 0.974 and 0.975 and 0.900 and 0.886 and 0.933 and 1.068

Q: What about the averaged rate (WT SthK; [7]) of the same molecule?
A: 1.014

Q: And the normalized rate (WT SthK; [7])?
A: 0.948 and 0.912 and 0.942 and 1.000 and 1.421 and 0.879

Q: And the averaged rate (WT SthK; [8])?
A: 0.922

Q: What about the normalized rate (WT SthK; [8]) of the same molecule?
A: 1.000 and 0.963 and 0.916 and 0.966 and 0.900 and 0.827 and 0.883

Q: And the “effect on SthK activation (slow activation phase)” value (WT SthK; 1 µM protein, 100 µM cAMP)?
A: abolished

Q: And the EC50 (WT SthK; PPIase concentration dependence of normalized Tl+ flux rate, 12 ms incubation with 100 µM cAMP)?
A: ~30 nM

Q: And the averaged rate (WT SthK; [9])?
A: 0.622

Q: And the normalized rate (WT SthK; [9])?
A: 0.592 and 0.562 and 0.636 and 0.697

Q: What about the averaged rate (WT SthK; [10]) of the same molecule?
A: 0.685

Q: What about the normalized rate (WT SthK; [10]) of the same molecule?
A: 0.710 and 0.760 and 0.585

Q: And the normalized rate (WT SthK; [PPIase] 1e-9 M, 12 ms with 100 µM cAMP)?
A: 0.755 and 0.566 and 0.775 and 0.750

Q: What about the averaged rate (WT SthK; [11]) of the same molecule?
A: 0.814

Q: And the normalized rate (WT SthK; [11])?
A: 0.965 and 0.565 and 0.822 and 0.905

Q: And the averaged rate (WT SthK; [12])?
A: 0.961

Q: And the normalized rate (WT SthK; [12])?
A: 1.083 and 0.844 and 0.962 and 0.956

Q: And the averaged rate (WT SthK; [13])?
A: 0.999

Q: What about the normalized rate (WT SthK; [13]) of the same molecule?
A: 1.000 and 0.992 and 1.006

Q: What about the averaged rate (WT SthK; [14]) of the same molecule?
A: 1.000

Q: And the normalized rate (WT SthK; [14])?
A: 1.000

Q: And the apparent rate (Abz-Ala-Glu-Pro-Phe-pNA; KCl, EPF substrate, 2 nM enzyme)?
A: 0.026 s⁻¹ and 0.024 s⁻¹

Q: And the apparent rate (Abz-Ala-Glu-Pro-Phe-pNA; KCl, EPF substrate, 5 nM enzyme)?
A: 0.025 s⁻¹ and 0.026 s⁻¹

Q: What about the apparent rate (Abz-Ala-Glu-Pro-Phe-pNA; KCl, EPF substrate, 10 nM enzyme) of the same molecule?
A: 0.024 s⁻¹ and 0.025 s⁻¹

Q: And the apparent rate (Abz-Ala-Glu-Pro-Phe-pNA; KCl, EPF substrate, 15 nM enzyme)?
A: 0.025 s⁻¹ and 0.024 s⁻¹

Q: What about the apparent rate (Abz-Ala-Glu-Pro-Phe-pNA; KNO3, EPF substrate, 2 nM enzyme) of the same molecule?
A: 0.023 s⁻¹ and 0.027 s⁻¹

Q: And the apparent rate (Abz-Ala-Glu-Pro-Phe-pNA; KNO3, EPF substrate, 5 nM enzyme)?
A: 0.024 s⁻¹ and 0.029 s⁻¹ and 0.027 s⁻¹

Q: And the apparent rate (Abz-Ala-Glu-Pro-Phe-pNA; KNO3, EPF substrate, 10 nM enzyme)?
A: 0.028 s⁻¹ and 0.024 s⁻¹ and 0.026 s⁻¹

Q: What about the apparent rate (Abz-Ala-Glu-Pro-Phe-pNA; KNO3, EPF substrate, 15 nM enzyme) of the same molecule?
A: 0.024 s⁻¹ and 0.027 s⁻¹

— publication PMC7744796, “Prolyl isomerization controls activation kinetics of a cyclic nucleotide-gated ion channel” (Nature Communications, 2020)
